From publication doi:10.1101/2024.05.16.594462v2

Substrate: OC[C@H]1O[C@@H](n2cnc3c(O)ncnc32)[C@H](O)[C@@H]1O
Experiment: purified protein
Settings: […] hPNP

B1: human purine nucleoside phosphorylase (hPNP) (Homo sapiens) (protein)
chain: MENGYTYEDYKNTAEWLLSHTKHRPQVAIICGSGLGGLTDKLTQAQIFDYGEIPNFPRSTVPGHAGRLVFGFLNGRACVMMQGRFHMYEGYPLWKVTFPVRVFHLLGVDTLVVTNAAGGLNPKFEVGDIMLIRDHINLPGFSGQNPLRGPNDERFGDRFPAMSDAYDRTMRQRALSTWKQMGEQRELQEGTYVMVAGPSFETVAECRVLQKLGADAVGMSTVPEVIVARHCGLRVFGFSLITNKVIMDYESLEKANHEEVLAAGKQAAQKLEQFVSILMASIPLPDKAS
With B1 the Km was 68.92 ± 4.08 µM.
